From doi:10.1101/2022.02.10.479912 (bioRxiv, 2022) come the findings set out here.

Experiment [1] concerns the target T1, human Interleukin-18 (mature) (human, UniProt Q14116 37-193).
T1 sequence (looked up): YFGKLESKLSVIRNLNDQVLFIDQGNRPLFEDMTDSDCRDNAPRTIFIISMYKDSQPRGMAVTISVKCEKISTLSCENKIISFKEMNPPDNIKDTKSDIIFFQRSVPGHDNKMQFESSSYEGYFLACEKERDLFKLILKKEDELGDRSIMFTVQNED
The experiment is described as follows: SEC-MALLS.

In experiment [2] the target is T1, human Interleukin-18 (mature). As to the kind of experiment: ITC.

B1: human IL-18BP truncated at the N-terminus (residues 63-194), endogenously glycosylated, without Endo H treatment (domain or fragment, UniProt O95998 63-194, looked up)
chain: QCPALEVTWPEVEVPLNGTLSLSCVACSRFPNFSILYWLGNGSFIEHLPGRLWEGSTSRERGSTGTQLCKALVLEQLTPALHSTNFSCVLVDPEQVVQRHVVLAQLWAGLRATLPPTQEALPSSHSSPQQQG
modifications: N-linked Man5GlcNAc2 glycans, not trimmed (no Endo H)
For B1, the binding result in experiment [1] was “binds”.

B2: human IL-18BP truncated at the N-terminus (residues 63-194) treated with Endoglycosidase H (domain or fragment, UniProt O95998 63-194, looked up)
chain: B1 chain
modifications: N-glycans trimmed by Endo H; N-Acetylglucosamine (GlcNAc) at Asn79, Asn103 and Asn147 in the crystal structure
In the case of B2, in experiment [2], the binding result was “binds”.
